± gives the standard deviation of the averaged measurements.
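Further: PSI is a weighted mean of sequencing reads over stability bins, variants kept only with over 10 reads, mCherry proximal and sfGFP distal, peptide attached via GGGS linker.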

The subject of this data set is Saccharomyces cerevisiae. In words: protein stability index of tFT-peptide fusion (C-terminal peptide) (PSI (0-1 scale)); higher = more stable (slower turnover). Conditions: genetic background: wild type; temperature: 30 C.
For SSTLVAFRFPSP, the protein stability index is 0.7014 ± 0.0043.

For SSWWGARVARRG, the protein stability index came out at 0.756 ± 0.041.

SSYGPAKSLGCA: the protein stability index is 0.684 ± 0.023.

STASSFFFFCCF showed a protein stability index of 0.664 ± 0.026.

As for STCVRSRTCETP, the protein stability index worked out at 0.675 ± 0.021.

With STGAVGVSVCEG, the protein stability index was 0.64 ± 0.022.

For the sequence STGPFFMIKGSF, the protein stability index was 0.72 ± 0.027.

The sequence STGRTSVNLCFS yielded a protein stability index of 0.706 ± 0.041.

STPFALVFLPFP had a protein stability index of 0.688 ± 0.034.

Take STPHPPPILHVL: the protein stability index worked out at 0.581 ± 0.013.

Consider STPPPRSLPSPP, for which the protein stability index turned out to be 0.716 ± 0.045.

The sequence STRGGLCFLRWV showed a protein stability index of 0.5543 ± 0.0019.

With STSLLTRTSSKL, the protein stability index worked out at 0.792 ± 0.015.

In the case of STTCPTGLTVGR, the protein stability index amounted to 0.69 ± 0.054.

For STVESPNSLPPL, the protein stability index was found to be 0.676 ± 0.037.

STVGRFPLSFHH had a protein stability index of 0.726 ± 0.062.

The sequence STWSLLKVGPAR showed a protein stability index of 0.6785 ± 0.0015.

Turning to SVAPRPPFPFAI, the protein stability index came out at 0.694 ± 0.026.

In turn, SVAQHLRNGNMC displayed a protein stability index of 0.745 ± 0.13.

The sequence SVAWGGGVVEWG gave a protein stability index of 0.661 ± 0.11.

For the sequence SVDRVIPQERQS, the protein stability index was determined as 0.697 ± 0.013.

In the case of SVGCRRGMDSRV, the protein stability index was found to be 0.702 ± 0.04.

As for SVGIWSYGLCWF, the protein stability index was 0.753 ± 0.055.

Sequence SVGQWSGGRACW came in with a protein stability index of 0.751 ± 0.043.

Sequence SVGSSGFMLFCL gave a protein stability index of 0.741 ± 0.18.

In turn, SVHTQLSPMDTT displayed a protein stability index of 0.64 ± 0.018.

SVILRMIGQKIK had a protein stability index of 0.596 ± 0.038.

As to SVIRTRYSSARM, the protein stability index came to 0.662 ± 0.057.

As to SVKESKIQQNRE, the protein stability index was 0.705 ± 0.11.

SVLRRKDKGKRG gave a protein stability index of 0.654 ± 0.014.

Sequence SVLVCSAIVIRK gave a protein stability index of 0.5998 ± 0.00079.

Regarding SVLVHSFRSVNV, the protein stability index was 0.66 ± 0.002.

In turn, SVPPPPRTPSSI showed a protein stability index of 0.666 ± 0.03.

SVRSVFVFGVIK displayed a protein stability index of 0.664 ± 0.017.

Sequence SVRSYYVRSMLE showed a protein stability index of 0.692 ± 0.076.

SVRVRKGRYDNK showed a protein stability index of 0.707 ± 0.018.

In the case of SVSGRYYAVRVR, the protein stability index was 0.566 ± 0.0072.

SVSVLSPPPLPP: the protein stability index was found to be 0.636 ± 0.015.

Regarding SVVFSQCLVNLG, the protein stability index is 0.659 ± 0.062.

SVVLGSVHVLTR registered a protein stability index of 0.661 ± 0.015.

SVWGGVPLVRET: the protein stability index was 0.6854 ± 0.0015.

In turn, SWAFAGGGAATG came in with a protein stability index of 0.694 ± 0.011.

On to SWFSPMCTTSPR, for which the protein stability index is 0.677 ± 0.04.

The sequence SWFVGFEGAVGG displayed a protein stability index of 0.7563 ± 0.0046.

SWHTSRPPPPPF returned a protein stability index of 0.656 ± 0.013.

Turning to SWPDVCLTSPLS, the protein stability index came out at 0.731 ± 0.042.

Sequence SWQSRISLRIST had a protein stability index of 0.648 ± 0.041.

Sequence SWTWLFGFRRGL gave a protein stability index of 0.746 ± 0.11.

In the case of SWVIRSDLHYAL, the protein stability index amounted to 0.731 ± 0.032.

SYLDWFLVLDMF showed a protein stability index of 0.6706 ± 0.0047.

SYLFRLLFATLP: the protein stability index amounted to 0.601 ± 0.033.

With SYLTQNGYAFRQ, the protein stability index was found to be 0.644 ± 0.082.

SYNYMSIVMYRL gave a protein stability index of 0.587 ± 0.0071.

In the case of SYRLILGSSPHP, the protein stability index was determined as 0.619 ± 0.089.

SYSPRRRLNTPR returned a protein stability index of 0.699 ± 0.058.

Sequence TACIVGLRLMRL had a protein stability index of 0.787 ± 0.063.

Consider TAFGLMRQPCMG, for which the protein stability index was determined as 0.657 ± 0.052.

Regarding TAGIIINCPIYL, the protein stability index was found to be 0.596 ± 0.038.

In turn, TAHPCVYRRGAV returned a protein stability index of 0.675 ± 0.021.

TALGLILSSFVY showed a protein stability index of 0.595 ± 0.067.

TALGVCPRVMQN returned a protein stability index of 0.718 ± 0.039.

With TALKNLPSVSSV, the protein stability index was 0.712 ± 0.1.

With TALQNAAPRTAS, the protein stability index came out at 0.73 ± 0.11.

Regarding TARGIRGICKSI, the protein stability index came to 0.711 ± 0.021.

As for TASVDQAVRWRG, the protein stability index was 0.708 ± 0.054.

TAYRFYSYESSF registered a protein stability index of 0.678 ± 0.082.

Take TCDGSCRRGDLR: the protein stability index was 0.663 ± 0.066.

For the sequence TCLIFTCVLKFR, the protein stability index turned out to be 0.485 ± 0.098.

TCPDSVMDRLDS: the protein stability index was determined as 0.696 ± 0.12.

As for TCRGGNPFRACC, the protein stability index was determined as 0.707 ± 0.054.

As for TCVLYSSGFIYF, the protein stability index was 0.665 ± 0.065.

As for TDGLGGGVVGRE, the protein stability index is 0.664 ± 0.011.

Sequence TDIRMRRLNRDT gave a protein stability index of 0.684 ± 0.029.

Take TDISPRFVSVYL: the protein stability index is 0.656 ± 0.017.

As to TEDGSYGESEQA, the protein stability index was determined as 0.642 ± 0.023.

Sequence TEREAKKKKSKI yielded a protein stability index of 0.704 ± 0.026.

TFAALRVFSFLS had a protein stability index of 0.666 ± 0.052.

On to TFALAPLPPLPS, for which the protein stability index came out at 0.68 ± 0.032.

Take TFCPPSRYRPRA: the protein stability index was 0.709 ± 0.008.

With TFFPPLPPPSPS, the protein stability index is 0.702 ± 0.012.

These data come from the supplement of paper PMC10724198.
